Experimental findings from patent US20230340114A1 (IMMUNE ONC THERAPEUTICS, published 2023) are described below.

Test [1] deals with T1, flag-tagged cynomolgus monkey LILRB4 expressed on CHO-K1 cells (cynomolgus monkey).
T1 construct: whole, on cells; also called cyno LILRB4
Put plainly: FACS, CHO-stable cells expressing cyno LILRB4.

The target in test [2] is T2, human LILRB4 expressed on cells (human, UniProt Q8NHJ6 22-448).
T2 construct: whole, on cells; also called ILT3; CD85k
Put plainly: FACS, CHO-stable cells expressing human LILRB4.

The target of test [3] is T2, human LILRB4 expressed on cells. The test can be described thus: FACS, CHO-K1 cells stably expressing human LILRB4; H7K3 in PBS, T0. The procedure:
(§1) EC50 FACS: Stable CHO-K1 cells expressing either human LILRB4 or flag-tagged cynomolgus monkey LILRB4 were used to determine binding capacity of stability samples of H7K3 antibody. CHO-K1 cells (1×10⁵) were stained with serially titrated stability samples followed by secondary staining with fluorescent-conjugated anti-human IgG (Biolegend). Geometric mean fluorescence (MFI) was measured and EC₅₀ were calculated by Prism.
(§2) The inventors then assessed the stability of the antibody H7K3 at 40° C. in PBS or a formulation buffer, the results of which are summarized in the Tables 2 and 3.

For test [4], the target named is T1, flag-tagged cynomolgus monkey LILRB4 …. The test can be described thus: FACS, CHO-K1 cells stably expressing flag-tagged cyno LILRB4; H7K3 in PBS, T0. The procedure:
as §1, §2

The target in test [5] is T2, human LILRB4 expressed on cells. The test can be described thus: FACS, CHO-K1 cells stably expressing human LILRB4; H7K3 in formulation buffer, T0. As to the method:
as §1

Test [6] has the same target. Put plainly: FACS, CHO-K1 cells stably expressing human LILRB4; H7K3 in PBS after 2 weeks at 40°C. As to the method:
as §1, §2

Test [7] has the same target. Put plainly: FACS, CHO-K1 cells stably expressing human LILRB4; H7K3 in PBS after 4 weeks at 40°C. As to the method:
as §1, §2

In test [8] the target is T1, flag-tagged cynomolgus monkey LILRB4 …. Put plainly: FACS, CHO-K1 cells stably expressing flag-tagged cyno LILRB4; H7K3 in formulation buffer, T0. The procedure:
as §1, §2

Test [9] shares this target. Put plainly: FACS, CHO-K1 cells stably expressing flag-tagged cyno LILRB4; H7K3 in PBS after 2 weeks at 40°C. The procedure:
as §1, §2

For test [10] the target is unchanged. The test can be described thus: FACS, CHO-K1 cells stably expressing flag-tagged cyno LILRB4; H7K3 in PBS after 4 weeks at 40°C. The procedure:
as §1, §2

For test [11], the target named is T2, human LILRB4 expressed on cells. The test can be described thus: FACS, CHO-K1 cells stably expressing human LILRB4; H7K3 reference row of the PBS stability table. The procedure:
as §1, §2

Test [12] has the same target. The test can be described thus: FACS, CHO-K1 cells stably expressing human LILRB4; H7K3 in formulation buffer after 2 weeks at 40°C. The procedure:
as §1, §2

Test [13] shares this target. Put plainly: FACS, CHO-K1 cells stably expressing human LILRB4; H7K3 in formulation buffer after 4 weeks at 40°C. As to the method: as §1, §2
Test [14] addresses T1, flag-tagged cynomolgus monkey LILRB4 …. The test can be described thus: FACS, CHO-K1 cells stably expressing flag-tagged cyno LILRB4; H7K3 reference row of the PBS stability table. As to the method:
as §1

Test [15] shares this target. Put plainly: FACS, CHO-K1 cells stably expressing flag-tagged cyno LILRB4; H7K3 in formulation buffer after 2 weeks at 40°C. As to the method: as §1, §2
The target is the same in test [16]. The test can be described thus: FACS, CHO-K1 cells stably expressing flag-tagged cyno LILRB4; H7K3 in formulation buffer after 4 weeks at 40°C. As to the method: as §1, §2
For test [17] the target is unchanged. The test can be described thus: FACS, CHO-K1 cells stably expressing flag-tagged cyno LILRB4; H7K3 reference row of the formulation buffer stability table. As to the method: as §1
The target of test [18] is T2, human LILRB4 expressed on cells. The test can be described thus: FACS, CHO-K1 cells stably expressing human LILRB4; H7K3 reference row of the formulation buffer stability table; H7K3 reference row of Table 3 (formulation buffer), not a T0 or 40° C. sample. The procedure:
as §1

Test [19] shares this target. Put plainly: cell-based or functional assay.
Test [20] shares this target. Put plainly: FACS (Geo MFI) on THP-1 cells; panel assigned to THP-1 by the order in legend paragraph 86.
The target is the same in test [21]. Put plainly: FACS (Geo MFI) on normal human monocytes; panel assigned to monocytes by the order in legend paragraph 86.

B1: H7K3 (antibody, V domains shown)
VH: EVQLVESGGGLVQPGGSLRLSCAASGFSLSSSYWISWVRQAPGKGLEWIGSIDSGSVGITYYATWVKGRFTISRDNSKNTLYLQMNSLRAEDTAVYYCARHGDNWALDLWGQGTLVTVSS
VL: DIQMTQSPSTLSASVGDRVTITCRASQSINSWLAWYQQKPGKAPKLLIYKASTLASGVPSRFSGSGSGTEFTLTISSLQPDDFATYYCQHGYIRGDLDNVFGGGTKVEIK
notes: Humanized from rabbit antibody B4-193; also called humanized anti-LILRB4 antibody; WT
For B1, the EC50 in test [1] amounted to 1.33 nM; in [2], 0.543 nM; in test [3], 0.734 nM; in test [4], 1.21 nM; in [5], 0.557 nM; in test [6], 0.895 nM. In addition, the EC50 was determined as 0.696 nM in test [7]; 0.883 nM in test [8]; 1.71 nM in [9]; 1.72 nM in test [10]; 0.65 nM in test [11]; 1.42 nM in test [12]. Further, the EC50 came to 2.14 nM in [13]; 1.19 nM in test [14]; 3.81 nM in test [15]; 6.05 nM in test [16]; 1.19 nM in test [17]; 0.65 nM in [18].

B2: H7K3m5 (antibody, V domains shown)
VH: EVQLVESGGGLVQPGGSLRLSCAASGFSLSSSYWISWVRQAPGKGLEWIGSIDSGSVGITYYATWVKGRFTISRDNSKNTLYLQMNSLRAEDTAVYYCARHGDNWALDLWGQGTLVTVSS
VL: DIQMTQSPSTLSASVGDRVTITCRASQSISSWLAWYQQKPGKAPKLLIYKASTLASGVPSRFSGSGSGTEFTLTISSLQPDDFATYYCQHGYIRGDLDNVFGGGTKVEIK
notes: Full-length IgG; human IgG1 is used as its isotype control; Only variable regions are tied to the name; Wild type (fucosylated) form unless said otherwise; also called variant 9; K3m5 (N/S)
For the molecule B2, in test [19], the “T-cell cytotoxicity against THP-1-GFP cells, mean EC50 (n=3)” value amounted to 0.208 nM. The EC50 came to 1.12 nM in test [1] and 0.415 nM in test [2]. For the same molecule, the “EC50 (read off the curve)” value was around 0.5 nM in test [20] and around 0.3 nM in test [21].
